Sequences and labels used below:
B1: Cdc27 (Nuc2) subunit of recombinant S. pombe APC/C (natural protein, UniProt P10505 1-665, looked up)
chain: MTDRLKCLIWYCIDNQNYDNSIFYSERLHAIEDSNESLYLLAYSHFLNLDYNIVYDLLDRVISHVPCTYLFARTSLILGRYKQGISAVEACRSNWRSIQPNINDSISSRGHPDASCMLDVLGTMYKKAGFLKKATDCFVEAVSINPYNFSAFQNLTAIGVPLDANNVFVIPPYLTAMKGFEKSQTNATASVPEPSFLKKSKESSSSSNKFSVSESIANSYSNSSISAFTKWFDRVDASELPGSEKERHQSLKLQSQSQTSKNLLAFNDAQKADSNNRDTSLKSHFVEPRTQALRPGARLTYKLREARSSKRGESTPQSFREEDNNLMELLKLFGKGVYLLAQYKLREALNCFQSLPIEQQNTPFVLAKLGITYFELVDYEKSEEVFQKLRDLSPSRVKDMEVFSTALWHLQKSVPLSYLAHETLETNPYSPESWCILANCFSLQREHSQALKCINRAIQLDPTFEYAYTLQGHEHSANEEYEKSKTSFRKAIRVNVRHYNAWYGLGMVYLKTGRNDQADFHFQRAAEINPNNSVLITCIGMIYERCKDYKKALDFYDRACKLDEKSSLARFKKAKVLILLHDHDKALVELEQLKAIAPDEANVHFLLGKIFKQMRKKNLALKHFTIAWNLDGKATHIIKESIENLDIPEENLLTETGEIYRNLET
notes: Cdc27 (S. pombe name Nuc2; human Apc3), TPR subunit of the S. pombe anaphase-promoting complex; Subunit within the recombinant S. pombe APC/C used for cryo-EM; also called Apc3; source: recombinant S. pombe APC/C
B2: Cdc16 (Cut9) subunit of recombinant S. pombe APC/C (natural protein, UniProt P41889 1-671, looked up)
chain: MVVKRTQTDSRMQSTPGNHNHPDAHANAAYMTPPSMGALNANNSNSQLSTLTISPMTYLANNTSTDGSFLKERNAQNTDSLSREDYLRLWRHDALMQQQYKCAAFVGEKVLDITGNPNDAFWLAQVYCCTGDYARAKCLLTKEDLYNRSSACRYLAAFCLVKLYDWQGALNLLGETNPFRKDEKNANKLLMQDGGIKLEASMCYLRGQVYTNLSNFDRAKECYKEALMVDAKCYEAFDQLVSNHLLTADEEWDLVLKLNYSTYSKEDAAFLRSLYMLKLNKTSHEDELRRAEDYLSSINGLEKSSDLLLCKADTLFVRSRFIDVLAITTKILEIDPYNLDVYPLHLASLHESGEKNKLYLISNDLVDRHPEKAVTWLAVGIYYLCVNKISEARRYFSKSSTMDPQFGPAWIGFAHSFAIEGEHDQAISAYTTAARLFQGTHLPYLFLGMQHMQLGNILLANEYLQSSYALFQYDPLLLNELGVVAFNKSDMQTAINHFQNALLLVKKTQSNEKPWAATWANLGHAYRKLKMYDAAIDALNQGLLLSTNDANVHTAIALVYLHKKIPGLAITHLHESLAISPNEIMASDLLKRALEENSLTSGFLNSKYVFEDEVSEYMQQSNLNTSDKSMSMEDQSGKVTESVNDRTQVLYADSRSEMMMDDIEGNVSEQR
notes: Cdc16 (S. pombe name Cut9; human Apc6), TPR subunit of the S. pombe anaphase-promoting complex; Subunit within the recombinant S. pombe APC/C used for cryo-EM; the insect-cell MultiBac system is described only for the budding-yeast APC/C; also called Apc6; source: recombinant S. pombe APC/C
B3: Cdc23 (Cut23) subunit of recombinant S. pombe APC/C (natural protein, UniProt O94556 1-565, looked up)
chain: MTVSLNTMMGVDGLEDQEQLREIRNCLLKCISECSERGLVYAVRWAAEMLNGMNPIEMEHIPFSSTPTGEFDLDPDMANEKLLEVEEKNIYLLAKSYFDCKEFERAAYTLQNCKSSKSIFLRLYSKYLAGEKKSEEENETLLNTNLTLSSTNREFYYISEVLESLHYQGNKDPYLLYLSGVVYRKRKQDSKAIDFLKSCVLKAPFFWSAWLELSLSIDSLETLTTVVSQLPSTHIMTKIFYVYASHELHQVNSSAYEKLAEAEIIFPNSRYLKTQRALLTYDSRDFDEAESLFENILTNDPYRLDDMDTYSNVLFVLENKSKLGFLAQVASSIDKFRPETCSIIGNYYSLLSEHEKAVTYFKRALQLNRNYLSAWTLMGHEYVELKNTHAAIESYRLAVDVNRKDYRAWYGLGQTYEVLDMHFYALYYFQRATALRPYDQRMWQALGNCYEKIDRPQEAIKSYKRALLGSQTNSSILVRLGNLYEELQDLNSAASMYKQCIKTEETEISPETIKARIWLARWELGKKNYREAELYLSEVLNGDLELEEAKALLRELRSRMEHSYD
notes: Cdc23 (S. pombe name Cut23; human Apc8), TPR subunit of the S. pombe anaphase-promoting complex; Subunit within the recombinant S. pombe APC/C used for cryo-EM; also called Apc8; source: recombinant S. pombe APC/C
B4: Cdc26 (Hcn1) subunit of recombinant S. pombe APC/C (natural protein, UniProt O13916 1-80, looked up)
chain: MLRRNPTAIQITAEDVLAYDEEKLRQTLDSESTTEEALQKNEESTRLSPEKKKIIRERRIGITQIFDSSMHPSQGGAAQS
notes: Cdc26 (S. pombe name Hcn1), TPR accessory subunit of the S. pombe anaphase-promoting complex; Subunit within the recombinant S. pombe APC/C used for cryo-EM; source: recombinant S. pombe APC/C

One data set concerns the molecule itself. Kind of data set: cryo-EM structure; recombinant S. pombe APC/C, single-particle cryo-EM, about 12 Å, still being refined; atomic models of subunits docked into the density and refined as rigid bodies with URO.
Details: not given
Consider B1, for which the binding result is “binds”. On the same count and under the same terms, next, B2: “binds”; B3: “binds”.

The target in the next data set is B2. The description is as above. Particulars: both partners purified.
Consider B1, for which the binding result is reported as “binds”. For the molecule B4, the binding result is reported as “binds”. For B3, the binding result is reported as “binds”.

The values are drawn from publication PMC3817697, “Building a pseudo-atomic model of the anaphase-promoting complex” (Acta Crystallographica Section D: Biological Crystallography, 2013).
